In patent US20220017622A1 (Pfizer, published 2022):
Substitutions are numbered along the chain they refer to.

T1: human B7-H4 on cells (human, UniProt Q7Z7D3 25-282)
T1 sequence (looked up): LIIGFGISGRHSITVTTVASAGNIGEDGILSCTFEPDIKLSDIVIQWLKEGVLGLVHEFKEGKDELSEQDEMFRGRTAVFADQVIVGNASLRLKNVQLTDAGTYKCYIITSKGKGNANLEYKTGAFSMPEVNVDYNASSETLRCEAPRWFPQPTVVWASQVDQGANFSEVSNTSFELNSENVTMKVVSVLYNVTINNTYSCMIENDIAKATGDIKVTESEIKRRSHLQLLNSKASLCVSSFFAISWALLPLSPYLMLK

B1: B7-H4xCD3 bispecific antibody 0976 (bispecific antibody, IgG2)
heavy 1: EVQLVESGGGLVQPGGSLRLSCAVSGGSFSGYYWNWIRQPPGKGLEWIGEIDHQGSTKYNPSLKSRVTISVDTAKNSLYLQMNSLRAEDTAVYYCARELYNWNVDHWGQGTLVTVSSASTKGPSVFPLAPCSRSTSESTAALGCLVKDYFPEPVTVSWNSGALTSGVHTFPAVLQSSGLYSLSSVVTVPSSNFGTQTYTCNVDHKPSNTKVDKTVERKCEVECPECPAPPVAGPSVFLFPPKPKDTLMISRTPEVTCVVVAVSHEDPEVQFNWYVDGVEVHNAKTKPREEQFNSTFRVVSVLTVVHQDWLNGKEYKCKVSNKGLPSSIEKTISKTKGQPREPQVYTLPPSREEMTKNQVSLTCEVKGFYPSDIAVEWESNGQPENNYKTTPPMLDSDGSFFLYSKLTVDKSRWQQGNVFSCSVMHEALHNHYTQKSLSLSPG
light 1: DIQMTQSPSSLSASVGDRVTITCRASQGIRNDLGWYQQKPGKAPKRLIYAASSLQSGVPSRFSGSGSGTDFTLTISSLQPEDFATYYCLQHNAYPRTFGGGTKVEIKRTVAAPSVFIFPPSDEQLKSGTASVVCLLNNFYPREAKVQWKVDNALQSGNSQESVTEQDSKDSTYSLSSTLTLSKADYEKHKVYACEVTHQGLSSPVTKSFNRGEC
heavy 2: EVQLVESGGGLVQPGGSLRLSCAASGFTFSDYYMTWVRQAPGKGLEWVAFIRNQARGYTSDHNPSVKGRFTISRDNAKNSLYLQMNSLRAEDTAVYYCARDRPSYYVLDYWGQGTTVTVSSASTKGPSVFPLAPCSRSTSESTAALGCLVKDYFPEPVTVSWNSGALTSGVHTFPAVLQSSGLYSLSSVVTVPSSNFGTQTYTCNVDHKPSNTKVDKTVERKCRVRCPRCPAPPVAGPSVFLFPPKPKDTLMISRTPEVTCVVVAVSHEDPEVQFNWYVDGVEVHNAKTKPREEQFNSTFRVVSVLTVVHQDWLNGKEYKCKVSNKGLPSSIEKTISKTKGQPREPQVYTLPPSREEMTKNQVSLTCLVKGFYPSDIAVEWESNGQPENNYKTTPPMLDSDGSFFLYSRLTVDKSRWQQGNVFSCSVMHEALHNHYTQKSLSLSPGK
light 2: DIQMTQSPSSLSASVGDRVTITCTSSQSLFNVRSQKNYLAWYQQKPGKAPKLLIYWASTRESGVPSRFSGSGSGTDFTLTISSLQPEDFATYYCKQSYDLFTFGGGTKVEIKRTVAAPSVFIFPPSDEQLKSGTASVVCLLNNFYPREAKVQWKVDNALQSGNSQESVTEQDSKDSTYSLSSTLTLSKADYEKHKVYACEVTHQGLSSPVTKSFNRGEC
B2: B7-H4xCD3 bispecific antibody 0090 (bispecific antibody, human IgG1, kappa)
heavy 1: QVQLQQWGAGLLKPSETLSLTCAVYGGSFSGYYWNWIRQPPGKGLEWIGEINHSGSTKYNPSLKSRVTISGDTSKNQFSLKLNSVTAADTAVYYCVRGLYNWNVDSWGQGTLVTVSSASTKGPSVFPLAPSSKSTSGGTAALGCLVKDYFPEPVTVSWNSGALTSGVHTFPAVLQSSGLYSLSSVVTVPSSSLGTQTYICNVNHKPSNTKVDKKVEPKSCDKTHTCPPCPAPEAAGAPSVFLFPPKPKDTLMISRTPEVTCVVVDVSHEDPEVKFNWYVDGVEVHNAKTKPREEQYNSTYRVVSVLTVLHQDWLNGKEYKCKVSNKALPAPIEKTISKAKGQPREPQVYTLPPSREEMTKNQVSLTCEVKGFYPSDIAVEWESNGQPENNYKTTPPVLDSDGSFFLYSKLTVDKSRWQQGNVFSCSVMHEALHNHYTQKSLSLSPG
light 1: B1 light 1 with A50V, D70E, A93S, R96Y, G100Q, V104L
heavy 2: EVQLVESGGGLVQPGGSLRLSCAASGFTFSDYYMTWVRQAPGKGLEWVAFIRNQARGYTSDHNPSVKGRFTISRDNAKNSLYLQMNSLRAEDTAVYYCARDRPSYYVLDYWGQGTTVTVSSASTKGPSVFPLAPSSKSTSGGTAALGCLVKDYFPEPVTVSWNSGALTSGVHTFPAVLQSSGLYSLSSVVTVPSSSLGTQTYICNVNHKPSNTKVDKKVEPKSCDKTHTCPPCPAPEAAGAPSVFLFPPKPKDTLMISRTPEVTCVVVDVSHEDPEVKFNWYVDGVEVHNAKTKPREEQYNSTYRVVSVLTVLHQDWLNGKEYKCKVSNKALPAPIEKTISKAKGQPREPQVYTLPPSREEMTKNQVSLTCLVKGFYPSDIAVEWESNGQPENNYKTTPPVLDSDGSFFLYSRLTVDKSRWQQGNVFSCSVMHEALHNHYTQKSLSLSPG
light 2: B1 light 2
B3: B7-H4xCD3 bispecific antibody 0978 (bispecific antibody, IgG2)
heavy 1: B1 heavy 1 with V24A
light 1: B1 light 1 with N92S, A93S
heavy 2: B1 heavy 2
light 2: B1 light 2

Molecular target: T1, human B7-H4 on cells
Assay: cell-based or functional assay

Binder | T cell mediated tumor cell killing EC50, HCC1954-Luc [nM]
B1 | 2170
B2 | 68
B3 | 320
